Reference: the supplement of paper PMC10567573

B1: TRIM55 (parent)
chain: FQASNPYLPTRGGTTMASGGRFRC

Variants of: B1
Experiment: protein stability index of a GFP-peptide fusion (GPS, HEK-293T) (PSI 1-6); higher = more stable
Details: c terminus: a fixed tail appended
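Also: lentivirally expressed fusions sorted by FACS into six bins by GFP to DsRed ratio, PSI derived from sequencing read proportions per bin multiplied by bin number.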

Row | Variant | protein stability index
1 | R21C | 2.35
2 | R21A | 1.18
3 | R21E | 2.18
4 | R21D | 1.81
5 | M16C | 1.77
6 | M16L | 1.79
7 | M16T | 1.99
8 | M16R | 1.86
9 | M16A | 1.57
10 | M16Q | 1.57
11 | M16W | 1.42
12 | M16E | 1.12
13 | M16K | 3.34
14 | M16I | 2.83
15 | M16F | 1.76
16 | M16G | 2.5
17 | M16N | 2.02
18 | M16V | 1.27
19 | M16Y | 1.98
20 | M16S | 2.67
21 | M16H | 1.69
22 | M16D | 1.65
23 | M16P | 2.92
24 | G13Y | 1.51

Row | Variant | protein stability index
25 | G13D | 1.64
26 | G13K | 2.74
27 | G13F | 1.22
28 | G13L | 3.49
29 | G13H | 2.32
30 | G13C | 1.65
31 | G13V | 1.9
32 | G13R | 1.7
33 | G13Q | 2.68
34 | G13I | 1.99
35 | G13P | 1.7
36 | G13A | 1.68
37 | G13M | 2.65
38 | G13E | 1.46
39 | G13W | 3.33
40 | G13S | 1.75
41 | G13N | 1.22
42 | G13T | 1.65
43 | T10K | 1.74
44 | T10Y | 1.83
45 | T10P | 2.37
46 | T10A | 2.06
47 | T10G | 2.03
48 | T10H | 2.17

Row | Variant | protein stability index
49 | T10L | 2.4
50 | T10R | 1.56
51 | T10D | 1.61
52 | T10M | 3.72
53 | T10V | 2.16
54 | T10S | 1.97
55 | T10Q | 1.93
56 | T10C | 2.17
57 | T10I | 1.81
58 | T10E | 2.99
59 | T10W | 2.81
60 | T10F | 2.19
61 | T10N | 2.23
62 | N5D | 2.81
63 | N5H | 3.58
64 | N5L | 2.04
65 | N5E | 2.58
66 | N5G | 1.41
67 | N5R | 1.7
68 | N5Y | 2.14
69 | N5F | 3.23
70 | N5C | 2.6
71 | N5P | 2.22
72 | N5K | 1.78

Row | Variant | protein stability index
73 | N5V | 2.1
74 | N5W | 2.49
75 | N5S | 3.55
76 | N5A | 2.65
77 | N5T | 2
78 | N5Q | 2.33
79 | N5I | 2.51
80 | G19R | 1.9
81 | G19F | 1.91
82 | G19M | 1.49
83 | G19A | 1.7
84 | G19L | 2
85 | G19W | 1.63
86 | G19V | 2.07
87 | G19I | 2.04
88 | G19Y | 2.06
89 | G19S | 1.83
90 | G19P | 1.83
91 | G19K | 2.39
92 | G19H | 2.48
93 | G19D | 2.06
94 | G19T | 2.28
95 | G19C | 2.9
96 | G19E | 1.71

Row | Variant | protein stability index
97 | G19N | 1.77
98 | G19Q | 2.06
99 | T14Y | 1.5
100 | T14C | 2.23
101 | T14V | 1.54
102 | T14P | 2.47
103 | T14D | 1.27
104 | T14H | 1.37
105 | T14E | 2.09
106 | T14S | 2.11
107 | T14K | 2.3
108 | T14W | 1.32
109 | T14F | 1.5
110 | T14N | 1.73
111 | T14L | 2.34
112 | T14G | 1.67
113 | T14Q | 2.52
114 | T14M | 2.32
115 | T14A | 1.93
116 | T14R | 1.41
117 | T14I | 2
118 | P9S | 1.7
119 | P9E | 2.17
120 | P9H | 1.86

Row | Variant | protein stability index
121 | P9I | 1.89
122 | P9D | 2.24
123 | P9W | 2.09
124 | P9G | 1.63
125 | P9K | 2.09
126 | P9A | 1.14
127 | P9M | 1.83
128 | P9F | 1.5
129 | P9V | 2.2
130 | P9L | 2.65
131 | P9Y | 1.88
132 | P9C | 2.04
133 | P9Q | 1.72
134 | P9T | 1.73
135 | P9N | 1.85
136 | P9R | 2.1
137 | A17Y | 2.11
138 | A17V | 3.21
139 | A17W | 1.76
140 | A17I | 1.08
141 | A17S | 2.14
142 | A17N | 2.27
143 | A17E | 2.52
144 | A17T | 1.84

Row | Variant | protein stability index
145 | A17H | 1.85
146 | A17P | 1.76
147 | A17M | 1.93
148 | A17K | 1.79
149 | A17R | 2.27
150 | A17L | 2.54
151 | A17Q | 2.02
152 | A17D | 1.76
153 | A17C | 2.24
154 | A17G | 1.45
155 | A17F | 1.88
156 | T15F | 1.57
157 | T15R | 2.93
158 | T15P | 1.52
159 | T15N | 2.3
160 | T15A | 2.24
161 | T15S | 1.69
162 | T15W | 1.75
163 | T15V | 2.54
164 | T15G | 2.85
165 | T15I | 1.88
166 | T15C | 1.28
167 | T15M | 1.72
168 | T15Y | 1.73

Row | Variant | protein stability index
169 | T15Q | 1.65
170 | T15D | 1.75
171 | T15E | 1.48
172 | T15H | 1.18
173 | T15L | 1.69
174 | T15K | 2.19
175 | A3L | 1.8
176 | A3P | 2.02
177 | A3I | 1.76
178 | A3F | 2.69
179 | A3H | 1.24
180 | A3N | 2.18
181 | A3Y | 1.95
182 | A3R | 2.46
183 | A3M | 1.83
184 | A3Q | 2.84
185 | A3T | 1.54
186 | A3W | 2.95
187 | A3S | 2.27
188 | A3V | 2.28
189 | A3E | 2.55
190 | A3K | 1.69
191 | A3G | 1.95
192 | Y7N | 3.4

Row | Variant | protein stability index
193 | Y7F | 2.43
194 | Y7L | 1.9
195 | Y7S | 3.18
196 | Y7A | 3.52
197 | Y7G | 3.29
198 | Y7I | 2.83
199 | Y7M | 2.68
200 | Y7H | 3.36
201 | Y7P | 3.54
202 | Y7K | 2.91
203 | Y7D | 3.76
204 | Y7E | 3.2
205 | Y7T | 3.27
206 | Y7C | 3.15
207 | Y7V | 3.13
208 | Y7Q | 3.45
209 | Y7R | 3.25
210 | S4L | 1.66
211 | S4P | 1.8
212 | S4N | 1.72
213 | S4D | 1.24
214 | S4A | 2.11
215 | S4F | 2.57
216 | S4G | 1.1

Row | Variant | protein stability index
217 | S4I | 1.88
218 | S4E | 1.95
219 | S4Y | 2.12
220 | S4M | 2.09
221 | S4T | 2.81
222 | S4V | 2.34
223 | S4R | 1.44
224 | S4K | 1.85
225 | S4C | 2.64
226 | S4Q | 1.86
227 | L8Q | 2.22
228 | L8E | 3.39
229 | L8Y | 1.59
230 | L8P | 1.92
231 | L8I | 2.79
232 | L8S | 2.7
233 | L8A | 1.81
234 | L8C | 3.09
235 | L8G | 2.02
236 | L8F | 1.63
237 | L8N | 2
238 | L8R | 2.54
239 | L8V | 2.03
240 | L8M | 1.26

Row | Variant | protein stability index
241 | L8T | 2.79
242 | L8K | 1.14
243 | L8H | 1.56
244 | L8D | 2.55
245 | S18G | 2.35
246 | S18A | 1.97
247 | S18V | 1.21
248 | S18K | 3.05
249 | S18N | 2.19
250 | S18T | 2.23
251 | S18E | 2.22
252 | S18D | 2.09
253 | S18Y | 2.22
254 | S18L | 2.45
255 | S18P | 1.79
256 | S18R | 2.24
257 | S18H | 1.57
258 | S18F | 1.95
259 | S18I | 1.48
260 | S18C | 1.35
261 | S18Q | 2.07
262 | S18M | 2.51
263 | G12C | 2.23
264 | G12M | 1.05

Row | Variant | protein stability index
265 | G12S | 2.61
266 | G12Y | 1.81
267 | G12F | 2.86
268 | G12H | 2.04
269 | G12A | 1.63
270 | G12Q | 1.34
271 | G12I | 2.77
272 | G12R | 2.79
273 | G12P | 1.55
274 | G12D | 2.06
275 | G12T | 2.13
276 | G12N | 1.62
277 | G12L | 2.67
278 | G12E | 1.55
279 | G12V | 3.34
280 | G12W | 2.35
281 | R11Q | 1.8
282 | R11Y | 2.28
283 | R11I | 2.46
284 | R11F | 2.01
285 | R11G | 2.02
286 | R11M | 2.11
287 | R11L | 2.15
288 | R11E | 2.29

Row | Variant | protein stability index
289 | R11N | 1.86
290 | R11W | 2.68
291 | R11A | 2.05
292 | R11V | 1.89
293 | R11P | 2.13
294 | R11S | 2.02
295 | R11T | 1.65
296 | R11H | 1.57
297 | R11C | 2.76
298 | R11D | 2
299 | G20P | 2.19
300 | G20M | 3.49
301 | G20F | 1.53
302 | G20A | 2.62
303 | G20C | 1.6
304 | G20Q | 1.68
305 | G20V | 1.77
306 | G20T | 1.71
307 | G20L | 2.24
308 | G20Y | 1.63
309 | G20E | 1.97
310 | G20D | 1.72
311 | G20H | 1.66
312 | G20N | 1.72

Row | Variant | protein stability index
313 | G20R | 1.96
314 | G20K | 2.1
315 | G20I | 1.73
316 | G20W | 2.07
317 | G20S | 1.34
318 | P6W | 1.93
319 | P6K | 3.13
320 | P6G | 2.06
321 | P6S | 1.65
322 | P6C | 3.1
323 | P6N | 2.72
324 | P6H | 2.37
325 | P6T | 1.93
326 | P6D | 2.07
327 | P6L | 2.65
328 | P6Q | 2.48
329 | P6E | 2.26
330 | P6V | 3.02
331 | P6I | 1.85
332 | P6Y | 2.42
333 | P6F | 2.12
334 | P6A | 1.96
